Target: the molecule itself
Experiment: negative-stain electron microscopy with single-particle statistical analysis; hDmc1 10 uM without DNA, 25 mM Tris-acetate pH 7.0, 2 mM ATP, 100 mM NaCl, 1 mM DTT, 2 mM CaCl2, 37 C for 30 min then on ice; eigen images and class averages of ring particles

B1: Human Dmc1 (hDmc1) (natural protein)
chain: MKEDQVVAEEPGFQDEEESLFQDIDLLQKHGINVADIKKLKSVGICTIKGIQMTTRRALCNVKGLSEAKVDKIKEAANKLIEPGFLTAFEYSEKRKMVFHITTGSQEFDKLLGGGIESMAITEAFGEFRTGKTQLSHTLCVTAQLPGAGGYPGGKIIFIDTENTFRPDRLRDIADRFNVDHDAVLDNVLYARAYTSEHQMELLDYVAAKFHEEAGIFKLLIIDSIMALFRVDFSGRGELAERQQKLAQMLSRLQKISEEYNVAVFVTNQMTADPGATMTFQADPKKPIGGHILAHASTTRISLRKGRGELRIAKIYDSPEMPENEATFAITAGGIGDAKE
notes: human Dmc1, a protein of 340 amino acid residues: N-terminal domain 1-81 and core ATPase domain 82-340; Probably the whole 340-residue protein, since both domains (1-81 and 82-340) were docked into the maps; Octameric ring without DNA; helical filament of open length on DNA; also called human meiotic recombinase Dmc1; source: E. coli BLR(DE3), purified (ammonium sulfate precipitation, HisTrap HP, …)
  stoichiometry N: 8

Reference: publication PMC2797393, “Structure of the hDmc1-ssDNA Filament Reveals the Principles of Its Architecture” (PLoS ONE, 2010)
